Earlier results as cited in publication PMC10256198 (European Heart Journal, 2023).

Conditions: stated in the introduction, no reference given

## Ghrelin: endogenous 28 amino acid anabolic peptide hormone, activated by acylation of amino-acid 3 (GSSFLSPEHQRVQQRKESKKPPAKLQPR; Ghrelin-28; UniProt Q9UBU3 24-51, looked up)
  plasma half time: 24 to 30 min
